Data as given in publication PMC6760441, “Structural insights into stressosome assembly” (IUCrJ, 2019).
Positions count from the first letter of the chain named. In names and notes the source's numbering stands.

B1: RsbS (Bacillus subtilis), full length, residues 1-121, tag removed (natural protein, Bacillus subtilis strain 168, UniProt P42410 1-121, looked up)
chain: MRHPKIPILKLYNCLLVSIQWELDDQTALTFQEDLLNKIYETGANGVVIDLTSVDMIDSFIAKVLGDVITMSKLMGAKVVLTGIQPAVAVTLIELGIALEEIETALDLEQGLETLKRELGE
modifications: phosphoserine at 59 (seen in the crystal structure and by peptide mass fingerprinting; likely phosphorylated during expression in E. coli)
notes: RsbS, Bacillus subtilis strain 168 (ATCC 23857), full length, residues 1-121; only a STAS domain; Dimer in solution by SEC-MALS; 60 monomers form an icosahedron in the crystal; The model holds residues 4-119 (chain A) or 5-119 (other chains); A selenomethionine-labelled form was used for phasing; also called native RsbS; Bs RsbS; source: E. coli BL21 Star (DE3), purified (IMAC, TEV cleavage, …)
B2: RsbS S59A mutant (natural protein, Bacillus subtilis)
chain: B1 chain with S59A
notes: RsbS, Bacillus subtilis, with S59A, which restricts phosphorylation; the construct is not described
B3: RsbRA (Bacillus subtilis), full length, residues 1-274, native (pET-22b), of the RsbRA-RsbS complex (natural protein, Bacillus subtilis strain 168, UniProt P42409 1-274, looked up)
chain: MMSNQTVYQFIAENQNELLQLWTDTLKELSEQESYQLTDQVYENISKEYIDILLLSVKDENAAESQISELALRAVQIGLSMKFLATALAEFWKRLYTKMNDKRLPDQESTELIWQIDRFFSPINTEIFNQYSISWEKTVSLQKIALQELSAPLIPVFENITVMPLVGTIDTERAKRIMENLLNGVVKHRSQVVLIDITGVPVVDTMVAHHIIQASEAVRLVGAKCLLAGIRPEIAQTIVNLGIDLSQVITKNTLQKGIQTALEMTDRKIVSLGE
notes: RsbRA, Bacillus subtilis strain 168 (ATCC 23857), full length, residues 1-274; N-terminal nonheme globin domain and C-terminal STAS domain; also called native RsbRA; source: E. coli BL21 Star (DE3), co-purified with 6xHis-thioredoxin-RsbS (IMAC, TEV cleavage, SEC)

What was measured:
[1] = molecular target: the molecule itself; assay: SEC-MALS; 200 ul of 1 mg/ml RsbS on a Superdex 200 analytical column; miniDAWN TREOS II MALS and Optilab rEX detectors
[2] = molecular target: B3; assay: cryo-EM structure; RsbRA-RsbS complex at 0.5 mg/ml in 20 mM HEPES pH 7.5, 50 mM NaCl, 0.2 mM TCEP, 5% glycerol; single-particle reconstruction with C1, D2 or I restraints; conditions: both partners purified
[3] = molecular target: the molecule itself; assay: crystal structure; RsbS 10 mg/ml; micro-batch at 20 C; 35% MPD, 100 mM MES/sodium hydroxide pH 6.0, 200 mM lithium sulfate; space group I23, five monomers in the asymmetric unit
[4] = molecular target: the molecule itself; assay: cryo-EM structure; RsbRA-RsbS complex at 0.5 mg/ml in 20 mM HEPES pH 7.5, 50 mM NaCl, 0.2 mM TCEP, 5% glycerol; single-particle reconstruction with C1, D2 or I restraints

Binder: B1
- stoichiometry N [1]: 2
- binding result [2]: binds
- stoichiometry N [3]: 60

Binder: B2
- stoichiometry N [1]: 2

Binder: B3
- binding result [4]: binds
